Key:
[1] = molecular target: T1, pSTAT3 (tyrosine-phosphorylated STAT3) (UniProt P40763 P40763:1-770); experiment: SPR; Langmuir 1:1, 4 C, 20 mM HEPES pH 7.0, 200 mM NaCl, 10 mM MgCl2; conditions: tags: recombinant, immobilized on CM5 chip for SPR, chain copies: 2 inferred, hairpin, GAAA loop linking the strands
Protocol: (§1) To more quantitatively assess the affinity of the decoy for pSTAT3 protein, the binding affinity by surface plasmon resonance (SPR) was determined. Solutions of STAT3 decoy were prepared at multiple concentrations and passed over recombinant tyrosine phosphorylated STAT3 immobilized in a sensor chip.
(§2) The amount of parent STAT3 decoy and modified STAT3 decoys bound to recombinant pSTAT3 increased directly with increasing concentrations of STAT3 decoy in test solutions. Data analysis by fitting the sensorgrams to a Langmuir 1:1 model of binding yielded kinetic and affinity values (Table 4).
(§3) To determine the specific binding affinities of the parent and the modified decoys (DN4 and DS18) to the pSTAT3 protein, surface plasmon resonance (SPR) analyses were performed using a BIAcore 3000 instrument (GE Healthcare, Piscataway, N.J.). All buffer and sample solutions were filtered and degassed prior to each run, with more optimal pH and instrument parameters determined empirically. The pSTAT3 protein at 10 μg/ml in 10 mM sodium acetate buffer (pH 4.0), was immobilized on freshly activated chip surface. […] Binding of STAT3 decoy, DN4 and DS18 to pSTAT3 protein were determined at several concentrations such as […] 0.625 μM, 1.25 μM, 2.5 μM 5.0 μM and 10.0 μM of analyte solutions, at a flow rate of 30 μL/min in a running buffer (20 mM HEPES, pH 7.0, 200 mM NaCl, 10 mM MgCl₂). […]

[2] = molecular target: T1, pSTAT3 (tyrosine-phosphorylated STAT3); experiment: SPR; Langmuir 1:1, 4 C, 20 mM HEPES pH 7.0, 200 mM NaCl, 10 mM MgCl2; replicate 1.15E-7 (Table 5A), 3.20E-7 (Table 5B); Table 3 1.29E-7 to 9.91E-7; conditions: tags: recombinant, immobilized on CM5 chip for SPR, chain copies: 2 inferred
Protocol: as §1, §2, §3

[3] = molecular target: T2, STAT3 (UniProt P40763 P40763:1-770); experiment: EMSA; conditions: chain copies: 2 inferred
T2 sequence (P40763 whole entry, one chain of several): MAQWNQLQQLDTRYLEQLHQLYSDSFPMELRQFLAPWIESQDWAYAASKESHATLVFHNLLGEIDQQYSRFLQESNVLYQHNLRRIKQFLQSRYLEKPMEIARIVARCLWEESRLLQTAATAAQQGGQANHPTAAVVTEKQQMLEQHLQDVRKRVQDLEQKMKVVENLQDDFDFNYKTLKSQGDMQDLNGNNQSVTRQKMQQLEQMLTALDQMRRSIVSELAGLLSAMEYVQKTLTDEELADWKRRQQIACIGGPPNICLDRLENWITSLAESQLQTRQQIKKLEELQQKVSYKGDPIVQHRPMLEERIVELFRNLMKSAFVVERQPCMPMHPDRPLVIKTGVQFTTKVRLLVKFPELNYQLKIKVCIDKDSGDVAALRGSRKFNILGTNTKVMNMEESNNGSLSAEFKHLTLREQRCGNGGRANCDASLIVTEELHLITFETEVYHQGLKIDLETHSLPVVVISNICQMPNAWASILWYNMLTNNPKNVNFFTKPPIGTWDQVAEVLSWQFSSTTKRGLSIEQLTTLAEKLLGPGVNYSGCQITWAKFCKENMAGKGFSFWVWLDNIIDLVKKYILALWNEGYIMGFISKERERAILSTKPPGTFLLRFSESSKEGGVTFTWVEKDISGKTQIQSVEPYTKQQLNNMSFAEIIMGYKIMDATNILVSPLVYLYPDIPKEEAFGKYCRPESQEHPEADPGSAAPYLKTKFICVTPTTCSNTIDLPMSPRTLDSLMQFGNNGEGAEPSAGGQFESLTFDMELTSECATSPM

[4] = molecular target: T2, STAT3; experiment: EMSA; longer sequence effective in blocking STAT3 activation; conditions: chain copies: 2 inferred

T1 sequence (P40763 whole entry, one chain of several): as above

B1: DN4 (structured_DNA)
DNA: CATTTCCCGTAAATCGAAAGATTTACGGGAAATG
modifications: PS x3 at 5' end of one strand and 3' end of the other (Table 2: 5' and 3' ends of both strands)
Kd [1]: 182 nM

B2: parent STAT3 decoy (PTO) (dsDNA)
DNA 1: CATTTCCCGTAAATC
DNA 2: GATTTACGGGAAATG
modifications: PS first three and last three bases of both strands
Kd [2]: 122 nM

B3: STAT3 decoy (hSIE) (dsDNA)
DNA 1: CATTTCCCGTAAATC
DNA 2: GATTTACGGGAAATG
binding result [3]: binds

B4: Mutant 3 (mutant control decoy) (dsDNA)
DNA 1: CATTTCCCTTAAATC
DNA 2: GATTTAAGGGAAATG
binding result [3]: no binding

B5: longer 31-mer hSIE duplex (dsDNA)
DNA 1: AGCTTGTCGACATTTCCCGTAAATCGTCGAG
DNA 2: CTCGACGATTTACGGGAAATGTCGACAAGCT
binding result [4]: binds
